Substrate in the data set: O=[N+]([O-])c1ccc(OP(=O)(O)O)cc1
Briefly: purified protein. It is filed as biochemical, Homo sapiens. As to conditions: 25 mM HEPES, 50 mM NaCl, 5 mM DTT, 2.5 mM EDTA, pH 7.2, 25 °C.

Setting [1] is: 20 min, text (b9) says STS2 has lower Km than STS1, against the table.

One may read the Km as the substrate concentration at which the rate is half of its maximum. In general, kcat refers to the number of substrate molecules converted per active site and unit of time at saturation. As usually defined, the kcat/Km is the second-order rate constant that governs catalysis at low substrate concentration.

B1: STS1-HP (STS1 histidine phosphatase domain) (Homo sapiens) (protein)
chain: GPQKRCLFVCRHGERMDVVFGKYWLSQCFDAKGRYIRTNLNMPHSLPQRSGGFRDYEKDAPITVFGCMQARLVGEALLESNTIIDHVYCSPSLRCVQTAHNILKGLQQENHLKIRVEPGLFEWTKWVAGSTLPAWIPPSELAAANLSVDTTYRPHIPISKLVVSESYDTYISRSFQVTKEIISECKSKGNNILIVAHASSLEACTCQLQGLSPQNSKDFVQMVRKIPYLGFCSCEELGETGIWQLTDPPILPLTHGPTGGFNWRETLLQE
For the protein B1, where the note is “10 min”, the Km came to 3.52 ± 0.44 mM, the kcat was 67.7 ± 1.31 s⁻¹ and the kcat/Km was determined as 19500 ± 2100 M⁻¹ s⁻¹.

B2: STS2-HP (STS2 histidine phosphatase domain) (Homo sapiens) (protein)
chain: SLQALQATVARKSVLVVRHGERVDQIFGKAWLQQCSTPDGKYYRPDLNFPCSLPRRSRGIKDFENDPPLSSCGIFQSRIAGDALLDSGIRISSVFASPALRCVQTAKLILEELKLEKKIKIRVEPGIFEWTKWEAGKTTPTLMSLEELKEANFNIDTDYRPAFPLSALMPAESYQEYMDRCTASMVQIVNTCPQDTGVILIVSHGSTLDSCTRPLLGLPPRECGDFAQLVRKIPSLGMCFCEENKEEGKWELVNPPVKTLTHGANAAFNWRNWISGN
Turning to B2, under setting [1], the Km stood at 5.39 ± 0.52 mM, the catalytic constant (kcat) was found to be 0.27 ± 0.005 s⁻¹ and the kcat/Km came to 50.5 ± 4.51 M⁻¹ s⁻¹.

The record behind these values is article PMC9917816, “STS1 and STS2 Phosphatase Inhibitor Baicalein Enhances the Expansion of Hematopoietic and Progenitor Stem Cells and Alleviates 5-Fluorouracil-Induced Myelosuppression” (International Journal of Molecular Sciences, 2023).
